According to publication PMC8301065:
Values belong to the substance of their own block, whether it stands above or below them.

Legend:
[1] = biological target: human cardiac α-actin mutant p.A295S (human)
[2] = biological target: human cardiac α-actin mutant p.E361G (human)
[3] = biological target: human cardiac muscle wild-type α-actin (recombinant) (human) (UniProt P68032)
[4] = biological target: human cardiac α-actin mutant p.R312H (human)
[5] = biological target: human cardiac muscle wild-type α-actin (recombinant) (human) (UniProt P68032); experiment: pyrene-actin polymerization assay; 5 µM c-actin with pyrene-labeled skeletal muscle actin added at 20:1, G-buffer; polymerization induced by 2 mM MgCl2 and 0.1 M KCl; rise of pyrene fluorescence; control without nucleator

FH2-domain of the formin mDia3, sequence (O70566 625-1025): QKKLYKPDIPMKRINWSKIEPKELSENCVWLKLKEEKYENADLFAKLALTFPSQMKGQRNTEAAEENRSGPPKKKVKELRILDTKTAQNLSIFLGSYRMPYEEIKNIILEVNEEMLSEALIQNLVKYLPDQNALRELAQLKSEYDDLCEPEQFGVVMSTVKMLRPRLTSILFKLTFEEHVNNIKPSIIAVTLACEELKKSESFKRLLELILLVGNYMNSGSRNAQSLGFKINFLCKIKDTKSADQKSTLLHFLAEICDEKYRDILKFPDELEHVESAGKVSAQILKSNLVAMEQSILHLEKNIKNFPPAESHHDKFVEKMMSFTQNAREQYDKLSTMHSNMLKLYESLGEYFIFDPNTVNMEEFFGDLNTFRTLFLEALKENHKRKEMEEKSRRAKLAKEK

half time of polymerization (t1/2) of 5 µM c-actin with 50 nM Arp2/3 complex, pyrene-actin assay (control without nucleator 12.2 min) [1]: 1.2 min
half time of polymerization (t1/2) of 5 µM c-actin with 50 nM Arp2/3 complex, pyrene-actin assay (control without nucleator 4.0 min) [2]: 1.8 min
half time of polymerization (t1/2) of 5 µM c-actin with 50 nM Arp2/3 complex, pyrene-actin assay (control without nucleator 8.6 min) [3]: 2.1 min
half time of polymerization (t1/2) of 5 µM c-actin with 50 nM Arp2/3 complex, pyrene-actin assay (control without nucleator 13.8 min) [4]: 1 min
Substance: Arp2/3 complex isolated from Acanthameba castellani

half time of polymerization (t1/2) of 5 µM c-actin with 50 nM mDia3-FH2, pyrene-actin assay (control without nucleator 12.2 min) [1]: 3.5 min
half time of polymerization (t1/2) of 5 µM c-actin with 50 nM mDia3-FH2, pyrene-actin assay (control without nucleator 4.0 min) [2]: 2.9 min
half time of polymerization (t1/2) of 5 µM c-actin with 50 nM mDia3-FH2, pyrene-actin assay (control without nucleator 8.6 min) [3]: 6.9 min
half time of polymerization (t1/2) of 5 µM c-actin with 50 nM mDia3-FH2, pyrene-actin assay (control without nucleator 13.8 min) [4]: 4.1 min
Substance: FH2-domain of the formin mDia3 (from UniProt O70566 625-1025) (domain or fragment)

half time of polymerization (t1/2) [5]: 8.6 min
Substance: human cardiac muscle wild-type α-actin (recombinant) (from UniProt P68032 1-377) (natural protein)
